In patent US20160311886A1, “Constructs Binding to Phosphatidylserine and Their Use in Disease Treatment and Imaging” (Board of Regents, The University of Texas System, priority 2005, published 2016):
“Also recorded” adds a separate entry of the source.

T1: human β2GPI (Homo sapiens, UniProt P02749)
T1 construct: Human β2GPI (hβ2GP1) was purified from human plasma essentially as described previously; from tissue; host or cells: pooled human plasma
T1 sequence (P02749 20-345): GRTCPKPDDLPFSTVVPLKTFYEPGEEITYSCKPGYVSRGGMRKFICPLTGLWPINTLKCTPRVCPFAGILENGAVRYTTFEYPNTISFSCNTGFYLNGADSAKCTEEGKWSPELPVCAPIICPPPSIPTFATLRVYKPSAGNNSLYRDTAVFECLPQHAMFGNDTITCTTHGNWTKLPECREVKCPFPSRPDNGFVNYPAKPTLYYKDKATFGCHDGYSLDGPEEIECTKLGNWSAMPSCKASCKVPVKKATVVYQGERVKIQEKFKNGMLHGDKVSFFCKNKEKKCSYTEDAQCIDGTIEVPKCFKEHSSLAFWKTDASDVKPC

B1: 3G4: Mouse IgG3 kappa monoclonal antibody to PS and anionic phospholipids; binding mediated by β2-glycoprotein I (antibody, listed as Mus musculus)
VH: MGWTWIFILILSVTTGVHSEVQLQQSGPELEKPGASVKLSCKASGYSFTGYNMNWVKQSHGKSLEWIGHIDPYYGDTSYNQKFRGKATLTVDKSSSTAYMQLKSLTSEDSAVYYCVKGGYYGHWYFDVWGAGTTVTVSSATTTAPSVYPLVP
VL: MDMRAPAQILGFLLLLFPGTRCDIQMTQSPSSLSASLGERVSLTCRASQDIGSSLNWLQQGPDGTIKRLIYATSSLDSGVPKRFSGSRSGSDYSLTISSLESEDFVDYYCLQYVSSPPTFGAGTKLELKRADAAPTVFIFGRIP

Legend:
[1] = Reactivity of 9D2 and annexin V with plastic-immobilized phospholipids (panel); assay type: binding
Experimental: Phospholipids were dissolved in n-hexane to a concentration of 50 μg/ml. 100 μl of this solution was added to wells of 96-well microtiter plates. After evaporation of the solvent in air, the plates were blocked for 2 h with 10% fetal bovine serum diluted in DPBS containing 2 mM Ca^2+ (binding buffer).
9D2 antibody or annexin V were diluted in the binding buffer in the presence of 10% serum at an initial concentration of 6.7 nM. Serial two-fold dilutions were prepared in the plates (100 μl per well). The plates were then incubated for 2 h at room temperature. The plates were washed and the 9D2 and annexin V were detected by goat anti-rat IgM conjugated to HRP and rabbit anti-human annexin V followed by goat anti-rabbit IgG conjugated to HRP (all diluted 1:1000), respectively. Secondary reagents were detected by using chromogenic substrate OPD followed by reading plates at 490 nm using a microplate reader (Molecular Devices, Palo Alto, Calif.).
The specificity of the 9D2 antibody binding was validated by using control rat IgM of irrelevant specificity (Pharmingen, San Diego, Calif.). The specificity of annexin V binding to phospholipids, which is Ca^2+-dependent, was determined by diluting the reagent in the DPBS containing 5 mM EDTA. Additional negative controls consisted of washing the plates with the binding buffer containing 0.2% of a detergent Tween 20. This treatment extracts lipids, thus removing the phospholipid that was absorbed to plastic. Neither 9D2 antibody nor annexin V bound to detergent-washed plates.

[2] = Competition of 9D2 and annexin V for binding to immobilized PS; settings: competitor in 10-fold molar excess
Experimental: Biotinylated 9D2 antibody and annexin V were prepared by incubating purified proteins with a 10-fold molar excess of N-hydroxysuccinimide biotin (Sigma, MO) for 1 h at room temperature. Free biotin was removed by dialysis against PBS. […] For competition studies, […] biotinylated proteins were premixed with a 10-fold molar excess of unmodified proteins. The mixtures were then added to PS-coated plates. Bound reagents were detected by streptavidin-HRP conjugate diluted 1:1000. The binding to PS of each reagent in the absence of a competitor was taken as the 100% value.

[3] = system: Tissue Factor (TF)-induced coagulation
human β2GPI = target: T1, human β2GPI; experiment: Anti-hβ2GPI ELISA; assay type: binding
Experimental: The assay was performed as described above with the following modifications. hβ2GPI, nicked hβ2GPI, or recombinant hβ2GPI peptides were coated on 96-well Immunlon 2HB microtiter plates overnight at a concentration of 10 μg/ml. Plates were then blocked in 1% OVA for 1 hr. at room temperature. […] Plates were incubated for 1 hr. at 37° C. and antibody binding was detected. All ELISA studies were performed at least three times.

[4] = 3G4 reactivity with plastic-immobilized phospholipids and liposome competition; assay type: binding
Experimental: Phospholipids were dissolved in n-hexane to a concentration of 50 μg/ml. 100 μl of this solution was added to wells of 96-well microtiter plates. After evaporation of the solvent in air, the plates were blocked for 2 h with 10% FBS diluted in DPBS containing 2 mM Ca^2+ (binding buffer). […] Serial two-fold dilutions were prepared in the plates (100 μl per well). The plates were then incubated for 2 hr. at room temperature. […] Secondary reagents were detected by using chromogenic substrate OPD followed by reading plates at 490 nm using a microplate reader (Molecular Devices, Palo Alto, Calif.).
Specificity of phospholipid recognition was further confirmed by competition assays with various liposomes. […] The solutions were dried under nitrogen to form a thin layer in a round-bottomed glass flask. 10 ml of Tris buffer (0.1 M, pH 7.4) were then added and the flask was sonicated five times for 2 min. […] The mixture was added to phospholipid-coated plates.
Liposomes were prepared from solutions of 5 mg of a single phospholipid in chloroform. The solutions were dried under nitrogen to form a thin layer in a round-bottomed glass flask. Ten ml of Tris buffer (0.1 M, pH 7.4) were then added and the flask was sonicated five times for 2 min. […] The mixture was added to PS-coated plates (after standard blocking), incubated for 1 hour, washed and the secondary antibody added. After 1 hour, the plates were washed and developed for 5 minutes using OPD.

RSV long strain = experiment: RSV plaque assay after antibody treatment; settings: MOI of 1
dendritic cells = experiment: DC uptake of apoptotic tumor cells; assay type: cell-based; settings: Fc(γ)R mediated internalization
Text: The inventors therefore envision using the anti-PS antibodies of the present invention to enhance both […] and cellular anti-tumor immunity, and boost the efficacy of ATC based DC tumor vaccines.

Meth A fibrosarcoma = experiment: 3G4 tumor treatment; assay type: in vivo, mouse
Experimental: Treatment was repeated 3 times a week. Animals were monitored twice a week for tumor measurements.
Groups of 8-10 female SCID mice were injected subcutaneously with 2×10^7 L540 cells or orthotopically with 1×10^7 MDA-MB-435 or MDA-MB-231 cells. BALB/c mice were injected subcutaneously with 1×10^6 Meth A cells. Tumors were allowed to grow to an average diameter of 0.8-1 cm (L540), 0.6-0.7 cm (MDA-MB-435), 0.5-0.7 cm (MDA-MB-231), or <0.1 cm (Meth A). […] Animals were monitored three times a week for tumor size and body weight. Mice were sacrificed when tumors in control mice reached a diameter of 1.5-2 cm.

Pichinde virus = assay type: cell-based
tumors = experiment: Tumor treatment with 3G4 and its F(ab′)2 fragment; assay type: in vivo, mouse; settings: treated on day 9

| Molecule | binding to heparin, heparan sulfate or double or single stranded DNA [1] | order of strength of binding to phospholipids in ELISA [1] | effect of EDTA on binding to anionic phospholipids ([1]; 5 mM EDTA) | Binding (% Control) of Biotinylated 9D2 to PS [2] [%] | Binding (% Control) of Biotinylated annexin V to PS [2] [%] | inhibition of TF-induced coagulation [3] | binding to hβ2GPI coated plate (human β2GPI) | binding to neutral phospholipids (PE, PC and SM) in ELISA [4] | binding to anionic phospholipid-coated plates ([4]; 1 mg/ml human β2-glycoprotein I, no serum) | effect of EDTA on binding ([4]; 5 mM EDTA) | reduction of binding to anionic phospholipid-coated plates ([4]; absence of serum) [%] | competition by phospholipid liposomes ([4]; liposomes of single phospholipids) | decrease in viral titer (RSV long strain) [log10] | enhancement of DC uptake of apoptotic tumor cells (dendritic cells) [%] | activation of endothelial cells (HUVECs) | mice with long-term complete remissions (Meth A fibrosarcoma; Meth A-bearing mice) [%] | retardation of tumor growth (Meth A fibrosarcoma; syngeneic Meth A fibrosarcoma) [%] | infected cells (Pichinde virus) | tumor growth (tumors) |
| --- | --- | --- | --- | --- | --- | --- | --- | --- | --- | --- | --- | --- | --- | --- | --- | --- | --- | --- | --- |
| Annexin V: High affinity PS binding ligand; natural ligand binding anionic phospholipids and PE | did not bind detectably | PI>PS=PE=PA=CL>PG | abolished | 93 | 8 | – | – | – | – | – | – | – | – | – | – | – | – | – | – |
| B1 | – | – | – | – | – | weak inhibition | bound strongly | does not bind | Full binding was restored | unaffected | 90 | blocked by liposomes prepared from PS, PA, PI and CL; also recorded: blocked by liposomes prepared from anionic phospholipids | 2 | 300 | does not activate resting HUVECs or HUVECs pre-activated with low concentrations of LPS | 50 | 90 | about one in about a hundred cells | tumor growth was significantly slowed |
